Results published in article PMC8096250.

Target: Nhp2 (W);Cbf5;Nop10;Gar1 (Saccharomyces cerevisiae;Saccharomyces cerevisiae;Saccharomyces cerevisiae;Saccharomyces cerevisiae) (UniProt P33322+Q6Q547+P28007)
Assay: smFRET
Settings: substrate RNA binding to the reconstituted H5 RNP; substrate is an analogue RNA; sequence as assayed not given; smFRET with immobilized 3'-biotin RNA; smFRET buffer not in the material (RNP reconstitution for activity assays: 12.5 mM Tris/HCl pH 8.0, 250 mM NaCl, 30 °C)

H5 U61-donor snoRNA with acceptor-labeled H5 substrate RNA
binding signal (% of RNPs substrate bound): 37
